Reference: patent US20090053242A1 (Amgen, published 2009)

T1: human c-Mpl receptor (TPO receptor), full-length, transfected into IL-3 dependent murine 32D cells (human, UniProt P40238 26-635)
T1 sequence (looked up): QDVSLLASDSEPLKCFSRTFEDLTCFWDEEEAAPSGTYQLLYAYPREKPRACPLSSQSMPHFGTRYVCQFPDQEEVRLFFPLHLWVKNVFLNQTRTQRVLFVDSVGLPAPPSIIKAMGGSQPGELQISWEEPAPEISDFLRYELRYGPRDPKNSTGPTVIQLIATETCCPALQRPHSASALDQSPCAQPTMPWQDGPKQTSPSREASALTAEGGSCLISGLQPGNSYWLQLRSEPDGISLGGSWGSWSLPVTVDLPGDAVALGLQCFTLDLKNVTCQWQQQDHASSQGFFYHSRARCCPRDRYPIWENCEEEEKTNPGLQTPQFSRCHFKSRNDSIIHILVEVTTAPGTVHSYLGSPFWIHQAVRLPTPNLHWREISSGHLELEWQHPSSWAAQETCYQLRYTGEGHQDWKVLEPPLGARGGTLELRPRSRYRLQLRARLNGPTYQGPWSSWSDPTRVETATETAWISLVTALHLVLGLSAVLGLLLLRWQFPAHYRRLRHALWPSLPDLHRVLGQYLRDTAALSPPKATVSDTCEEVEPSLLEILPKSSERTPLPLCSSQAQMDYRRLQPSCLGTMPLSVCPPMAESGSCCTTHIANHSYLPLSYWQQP

B1: TMP tandem dimer with linker of 6 glycine residues (peptide)
peptide: IEGPTLRQWLAARAGGGGGGIEGPTLRQWLAARA
B2: TMP tandem dimer with linker of 7 glycine residues (peptide)
peptide: IEGPTLRQWLAARAGGGGGGGIEGPTLRQWLAARA
B3: TMP tandem dimer with linker of 8 glycine residues (peptide)
peptide: IEGPTLRQWLAARAGGGGGGGGIEGPTLRQWLAARA
B4: peptide 13, TMP tandem dimer with GPNG linker (peptide)
peptide: IEGPTLRQWLAARAGPNGIEGPTLRQWLAARA
B5: TMP tandem dimer without linker (0 glycine residues) (peptide)
peptide: IEGPTLRQWLAARAIEGPTLRQWLAARA
B6: TMP tandem dimer with linker of 1 glycine residue (peptide)
peptide: IEGPTLRQWLAARAGIEGPTLRQWLAARA
B7: TMP tandem dimer with linker of 2 glycine residues (peptide)
peptide: IEGPTLRQWLAARAGGIEGPTLRQWLAARA
B8: TMP tandem dimer with linker of 3 glycine residues (peptide)
peptide: IEGPTLRQWLAARAGGGIEGPTLRQWLAARA
B9: TMP tandem dimer with linker of 4 glycine residues (peptide)
peptide: IEGPTLRQWLAARAGGGGIEGPTLRQWLAARA
B10: TMP tandem dimer with linker of 5 glycine residues (peptide)
peptide: IEGPTLRQWLAARAGGGGGIEGPTLRQWLAARA

molecular target: T1, human c-Mpl receptor (TPO receptor), …; assay: cell-based or functional assay

Molecule | potency in TPO-dependent cell-proliferation assay, against the monomer [fold] | activity in cell-proliferation assay, against the GGGG-linked analog [fold less active] | potency in cell-proliferation assay, against the monomer [fold]
B1 | > 1000 | – | –
B2 | > 1000 | – | –
B3 | > 1000 | – | –
B4 | – | > 10 | ~100
B5 | > 1000 | – | –
B6 | > 1000 | – | –
B7 | > 1000 | – | –
B8 | > 1000 | – | –
B9 | > 1000 | – | –
B10 | > 1000 | – | –

molecular target: human c-Mpl receptor (TPO receptor), full-length, transfected into IL-3 dependent murine 32D cells (human) (UniProt P40238); assay: cell-based or functional assay

Molecule | potency in TPO-dependent cell-proliferation assay, against the monomer [fold]
TMP tandem dimer with linker of 10 glycine residues (peptide) | > 1000
TMP tandem dimer with linker of 9 glycine residues (peptide) | > 1000
TMP tandem dimer with linker of 14 glycine residues (peptide) | > 1000
